Columns and labels:
recombinant human IL-6 [1] = biological target: T1, recombinant human IL-6 (human, UniProt P05231 30-212); test: solid phase EIA, plate coated with recombinant human IL-6 at 1 µg/mL, detection with HRP goat anti-human IgG, OD 490
T1 construct: Bought recombinant protein; also called rhIL-6; HuIL-6
Method: A solid phase EIA was used to assess binding characteristics of cCLB8 Mab to human IL-6. Briefly, plates were coated with recombinant human IL-6 (RDI) at 1 μg/mL in PBS overnight at 4° C. After washing in 0.15M saline containing 0.02% (v/v) Tween 20, the wells were blocked with 1% (w/v) BSA in PBS, 200 μL/well for 1 hour at RT. Purified antibody was incubated in two-fold serial dilutions from a starting concentration of 5 μg/mL for 1 hour at 37° C. The plate was washed and then probed with 50 μL/well HRP-labeled goat anti-human IgG (Tago) diluted 1:20,000 in 1% BSA-PBS for 1 hour at RT. The plate was again washed and 100 μL/well of the citrate-phosphate substrate solution (0.1 M citric acid and 0.2M sodium phosphate, 0.01% H₂O₂ and 1 mg/mL OPD) was added for 15 minutes at RT. Stop solution (4N sulfuric acid) was then added at 25 μL/well and the absorption at 490 nm quantitated using an automated plate photometer.

recombinant human IL-6 [2] = biological target: T1, recombinant human IL-6; test: cell-based or functional assay
recombinant human IL-6 [3] = biological target: T1, recombinant human IL-6; test: SPR (BIAcore 2000, 25 C); cCLB8 captured on anti-human Fc, IL-6 as analyte; 1:1 model
Method: (§1) An anti-human Fc (1.8 mg/ml) was diluted to a concentration of 50 μg/ml in NaOAc buffer (10 mM, pH 4.8) and coupled to the carboxymethylated dextran matrix of a CM-5 sensor chip using the manufacturer's amine-coupling chemistry as described in the BIAcore systems manual. Using the surface preparation wizard aiming for 10000 RU, the carboxyl groups on the sensor surfaces were first activated with NHS/EDC followed by the addition of the anti-human Fc. The remaining activated groups were blocked by the injection of 1M ethanolamine. Each of the flow cells was coupled individually. Employing these conditions, the four flow cell surfaces containing 7554-9571 resonance units (RU) of anti-human Fc were prepared. In preliminary experiments, it was determined that three injections (15 ul at 30 μl/min) 100mM H3PO4/0.05% CHAPS would efficiently remove the bound immunoglobulin and preserve the binding capacity of the immobilized anti-human Fc.
(§2) Two experiments were performed on the BIAcore 2000 at 25 °C and a flow rate of 30 μL/min. cCLB8 was dissolved in HBS at 5 ug/ml. […] A designated amount of antibody was flowed over its respective flow cell followed by injections of 30 μl of each IL-6 concentration at 30 μl/min (association phase) and an uninterrupted 800 seconds of buffer flow (dissociation phase). The surface of the chip was regenerated by three sequential injections of 15 μl each with 100 mM H3PO4/0.05% CHAPS. The injections of HBS serve as a reference (blank sensogram) for the subtraction of bulk refractive indices for analysis. Using the 1:1 model in BIAanalysis 3.0, a local fit was done for both dissociation (kd, [s−1] and association (ka, [M-1s−1]) and the dissociation constant (KD, [M]) calculated (kd/ka).
(§3) Analysis was done using BIAevaluation version 3.0. Kinetic constants were derived from sensogram data by fitting the experimental curves to the rate equations derived from models of the interaction mechanism. A global analysis using a 1:1 binding model with local RUmax fit, the ka, kd, KD were determined (Table 1).

recombinant human IL-6 [4] = biological target: T1, recombinant human IL-6; test: SPR (BIAcore 2000, 25 C); cCLB8 captured on anti-human Fc, IL-6 as analyte; 1:1 model; second experiment
Method: as §1, §2, §3

B1: chimeric CLB8 anti-human IL-6 monoclonal antibody (antibody, IgG1, V domains shown)
VH: EVQLVESGGKLLKPGGSLKLSCAASGFTFSSFAMSWFRQSPEKRLEWVAEISSGGSYTYYPDTVTGRFTISRDNAKNTLYLEMSSLRSEDTAMYYCARGLWGYYALDYWGQGTSVTVSS
VL: QIVLIQSPAIMSASPGEKVTMTCSASSSVSYMYWYQQKPGSSPRLLIYDTSNLASGVPVRFSGSGSGTSYSLTISRMEAEDAATYYCQQWSGYPYTFGGGTKLEIK
notes: Murine CLB-8 variable regions joined to human constant regions; IgG1 and kappa are named only as preferred; also called anti-IL-6 cCLB-8 antibody; CNTO 328
EC50 (read off the curve) (recombinant human IL-6 [1]): ~4 ng/mL | EC50 of inhibition of IL-6 induced 7TD1 cell proliferation (luminescent ATP assay) (recombinant human IL-6 [2]): 7.2 ng/mL | Kd (recombinant human IL-6 [3]): 0.057 nM | koff (recombinant human IL-6 [3]): 6.2e-05 s⁻¹ | kon (recombinant human IL-6 [3]): 1.1e+06 M⁻¹ s⁻¹ | Kd (recombinant human IL-6 [4]): 0.14 nM | koff (recombinant human IL-6 [4]): 5.2e-05 s⁻¹ | kon (recombinant human IL-6 [4]): 370000 M⁻¹ s⁻¹
